Data taken from patent US20150104388A1.

Biological target: PAC1 receptor (human) (UniProt P41586)
Assay: cell-based or functional assay

Chain of PAC1 receptor (human) (P41586 21-468): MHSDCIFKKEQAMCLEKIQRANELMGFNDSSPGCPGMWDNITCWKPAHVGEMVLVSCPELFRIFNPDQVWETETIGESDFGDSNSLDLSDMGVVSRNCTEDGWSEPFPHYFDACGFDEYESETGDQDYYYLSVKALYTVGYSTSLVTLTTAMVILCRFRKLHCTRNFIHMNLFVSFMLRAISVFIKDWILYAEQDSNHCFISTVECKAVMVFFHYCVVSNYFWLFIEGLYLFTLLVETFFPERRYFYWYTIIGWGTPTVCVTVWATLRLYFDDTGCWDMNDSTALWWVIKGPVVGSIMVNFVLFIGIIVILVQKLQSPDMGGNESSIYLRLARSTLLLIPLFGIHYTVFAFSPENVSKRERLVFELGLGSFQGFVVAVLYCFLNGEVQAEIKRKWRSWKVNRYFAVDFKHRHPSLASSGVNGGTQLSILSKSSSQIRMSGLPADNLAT

- fold lower potency as inhibitor of multiple myeloma cell proliferation, against the corresponding analog with pipecolic acid in position 3: 10000 fold
Substance: PACAP38 analog with nipecotic acid in position 3 (peptide)
